Experimental data published in paper PMC6652007, “Metabolic engineering of Clostridium thermocellum for n-butanol production from cellulose” (Biotechnology for Biofuels, 2019).

Tests used:
[1] = test system: T1, NC(=O)C1=CN([C@@H]2O[C@H](COP(=O)(O)OP(=O)(O)OC[C@H]3O[C@@H](n4cnc5c(N)ncnc54)[C@H](O)[C@@H]3O)[C@@H](O)[C@H]2O)C=CC1; assay: NAD(P)H oxidation, A340; assay type: biochemical, Thermoanaerobacterium thermosaccharolyticum; conditions: acetoacetyl-CoA as substrate, 100 mM MOPS-KOH pH 7.5, 55 °C, varied: cofactor
T1 construct: His-tagged (vector pD861-CH), codon-optimised, expressed in E. coli BL21(DE3)
From the text: (§1) NAD(P)H oxidation, A340 on Tt_Hbd

[2] = test system: T2, NC(=O)C1=CN([C@@H]2O[C@H](COP(=O)(O)OP(=O)(O)OC[C@H]3O[C@@H](n4cnc5c(N)ncnc54)[C@H](OP(=O)(O)O)[C@@H]3O)[C@@H](O)[C@H]2O)C=CC1; assay: NAD(P)H oxidation, A340; assay type: biochemical, Thermoanaerobacterium thermosaccharolyticum; conditions: acetoacetyl-CoA as substrate, 100 mM MOPS-KOH pH 7.5, 55 °C, varied: cofactor
T2 construct: His-tagged (vector pD861-CH), codon-optimised, expressed in E. coli BL21(DE3)
From the text: as §1

[3] = test system: T3, CC(=O)CC(=O)SCCNC(=O)CCNC(=O)[C@H](O)C(C)(C)COP(=O)(O)OP(=O)(O)OC[C@H]1O[C@@H](n2cnc3c(N)ncnc32)[C@H](O)[C@@H]1OP(=O)(O)O; assay: NADH oxidation, A340; assay type: biochemical, Thermoanaerobacterium thermosaccharolyticum; conditions: 0.3 mM NADH, 100 mM MOPS-KOH pH 7.5, 55 °C
T3 construct: His-tagged (vector pD861-CH), codon-optimised, expressed in E. coli BL21(DE3)
From the text: NADH oxidation, A340 on Tt_Hbd

[4] = test system: CC(O)CC(=O)SCCNC(=O)CCNC(=O)[C@H](O)C(C)(C)COP(=O)(O)OP(=O)(O)OC[C@H]1O[C@@H](n2cnc3c(N)ncnc32)[C@H](O)[C@@H]1OP(=O)(O)O; assay: purified protein; conditions: 0.3 mM NADH, coupled with Ter, 100 mM MOPS-KOH pH 7.5, 55 °C

Chain of Tt_Hbd (Thermoanaerobacterium thermosaccharolyticum DSM 571) (chain, as listed by the source): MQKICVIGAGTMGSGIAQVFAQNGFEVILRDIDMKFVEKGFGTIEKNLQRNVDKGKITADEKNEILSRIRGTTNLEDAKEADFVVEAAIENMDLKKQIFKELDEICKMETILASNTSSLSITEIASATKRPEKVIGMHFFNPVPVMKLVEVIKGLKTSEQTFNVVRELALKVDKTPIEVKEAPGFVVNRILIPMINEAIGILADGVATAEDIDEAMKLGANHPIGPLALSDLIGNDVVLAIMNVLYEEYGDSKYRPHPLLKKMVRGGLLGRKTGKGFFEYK
Chain of Tt_Hbd (Thermoanaerobacterium thermosaccharolyticum DSM 571; D31A) (chain, as listed by the source D31A): as the sequence (chain, as listed by the source) above, with D31A counted along it

Row | Substance | Km [1] | Vmax [1] | Km [2] | Vmax [2] | Km [3] | Km [4]
1 | Tt_Hbd (Thermoanaerobacterium thermosaccharolyticum DSM 571) | 50 ± 20 µM | 61.4 µmol/min/mg | 1100 ± 200 µM | 15.2 µmol/min/mg | 30 ± 10 µM | 
2 | Tt_Hbd (Thermoanaerobacterium thermosaccharolyticum DSM 571; D31A) | 60 ± 20 µM | 38.5 µmol/min/mg | 30 ± 10 µM | 485 µmol/min/mg |  | 
3 | Tt_Crt (Thermoanaerobacterium thermosaccharolyticum DSM 571) |  |  |  |  |  | 600 ± 100 µM
